Positions count from the first letter of the chain named.
B1: T1-21 (antibody, IgG1, V domains shown)
VH: EVQLVESGGGLVQPGGSLRLSCAASGFTFSSYSMNWVRQAPGKGLEWVSYISSSSSTIYYADSVKGRFTISRDNAKNSLYLQMNSLRAEDTAVYYCARGGPLGYGDYKGMDVWGQGTTVTVSS
VL: DIQLTQSPSSLSASVGDRVTITCRASQSISSFLNWYQQKPGKAPKLLIYAASSLQSGVPSRFSGSGSGTDFTLTISSLQPEDFATYYCQQSYSDLTFGGGTKVEIK
notes: huIgG1; also called TI-21; ADI-19088
B2: T1-17 (antibody, IgG1, V domains shown)
VH: QVQLQESGPGLVKPSETLSLTCTVSGGSISSYYWSWIRQPPGKGLEWIGSIYYSGSTNYNPSLKSRVTISVDTSKNQFSLKLSSVTAADTAVYYCARGAPGGRHNWFDPWGQGTLVTVSS
VL: DIQMTQSPSSLSASVGDRVTITCQASQDISNYLNWYQQKPGKAPKLLIYDASNLATGVPSRFSGSGSGTDFTFTISSLQPEDIATYYCQQSDIHPRTFGGGTKVEIK
notes: huIgG1; also called TI-17; ADI-19084
B3: T1-13 (antibody, IgG1, V domains shown)
VH: EVQLVESGGGLVKPGGSLRLSCAASGFTFSSYSMNWVRQAPGKGLEWVSSISSSSNYIYYADSVKGRFTISRDNAKNSLYLQMNSLRAEDTAVYYCARGRYRRTGSLDVWGQGTMVTVSS
VL: EIVLTQSPGTLSLSPGERATLSCRASQSVSSSFLAWYQQKPGQAPRLLIYGASSRATGIPDRFSGSGSGTDFTLTISRLEPEDFAVYYCQQLDSHPPTFGGGTKVEIK
notes: huIgG1; also called TI-13; ADI-19080
B4: T1-15 (antibody, IgG1, V domains shown)
VH: EVQLVESGGGLVKPGGSLRLSCAASGFTFSSYSMNWVRQAPGKGLEWVSSISSSSSYIYYADSVKGRFTISRDNAKNSLYLQMNSLRAEDTAVYYCARRGGSYDAFQHWGQGTLVTVSS
VL: B3 VL with F33Y, L92A, D93F, S94I, H95S
notes: huIgG1; also called TI-15; ADI-19082
B5: T1-22 (antibody, IgG1, V domains shown)
VH: QVQLQESGPGLVKPSETLSLTCTVSGGSISSYYWSWIRQPPGKGLEWIGHIYYSGSTNYNPSLKSRVTISVDTSKNQFSLKLSSVTAADTAVYYCARDAGRYYGSSSSWYFDLWGRGTLVTVSS
VL: B3 VL with F33Y, L92Y, D93L, S94I, H95P, P97I
notes: huIgG1; also called TI-22; ADI-19089
B6: T1-14 (antibody, IgG1, V domains shown)
VH: QVQLVESGGGVVQPGRSLRLSCAASGFTFSSYGMHWVRQAPGKGLEWVAVISYDGSNKYYADSVKGRFTISRDNSKNTLYLQMNSLRAEDTAVYYCARRSSGDYLDVWGQGTMVTVSS
VL: not shown
notes: huIgG1; also called TI-14; ADI-19081
B7: T1-12 (antibody, IgG1, V domains shown)
VH: QLQLQESGPGLVKPSETLSLTCTVSGGSISSSSYYWGWIRQPPGKGLEWIGSIYYSGSTYYNPSLKSRVTISVDTSKNQFSLKLSSVTAADTAVYYCARGGGYPWEAFDYWGKGTTVTVSS
VL: EIVLTQSPATLSLSPGERATLSCRASQSVSSYLAWYQQKPGQAPRLLIYDASNRATGIPARFSGSGSGTDFTLTISSLEPEDFAVYYCQQYTSWPLTFGGGTKVEIK
notes: huIgG1; also called TI-12; ADI-19079
B8: T1-26 (antibody, IgG1, V domains shown)
VH: QVQLVQSGAEVKKPGASVKVSCKASGYTFTSYYIHWVRQAPGQGLEWMGIINPSGGSTSYAQKFQGRVTMTRDTSTSTVYMELSSLRSEDTAVYYCARDSAQETYYYGMDVWGQGTTVTVSS
VL: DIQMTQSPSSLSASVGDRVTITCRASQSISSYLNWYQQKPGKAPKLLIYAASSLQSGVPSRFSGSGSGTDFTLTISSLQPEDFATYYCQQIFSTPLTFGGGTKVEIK
notes: huIgG1; also called TI-26

What was measured:
[1] = target: T1, mouse TREM1 on CHO cells (mouse, UniProt Q9JKE2 21-230); assay: FACS, CHO mouse TREM1
T1 construct: also called CHO-mT1
T1 sequence: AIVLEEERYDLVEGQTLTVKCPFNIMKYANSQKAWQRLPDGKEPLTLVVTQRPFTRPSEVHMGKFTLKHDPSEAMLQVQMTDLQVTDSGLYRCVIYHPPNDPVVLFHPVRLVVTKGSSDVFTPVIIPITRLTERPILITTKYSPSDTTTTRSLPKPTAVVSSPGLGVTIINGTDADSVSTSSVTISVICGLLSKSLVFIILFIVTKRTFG

[2] = target: T2, human TREM2 on BWZ cells (human, UniProt Q9NZC2 19-230); assay: FACS, BWZ human TREM2
T2 construct: whole, on cells; not tied to the cell line; also called BWZ Human TREM2
T2 sequence (looked up): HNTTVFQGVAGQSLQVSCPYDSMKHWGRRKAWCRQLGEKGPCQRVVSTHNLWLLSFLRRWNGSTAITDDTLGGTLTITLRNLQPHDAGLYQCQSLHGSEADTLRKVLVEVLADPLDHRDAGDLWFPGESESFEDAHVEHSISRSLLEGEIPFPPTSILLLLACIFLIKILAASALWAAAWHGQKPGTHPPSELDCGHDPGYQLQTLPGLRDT

[3] = target: T2, human TREM2 on BWZ cells; assay: FACS, BWZ cells
[4] = target: T3, mouse TREM2 on BWZ cells (mouse, UniProt Q99NH8 19-227); assay: FACS, BWZ cells
T3 construct: whole, on cells; also called BWZ Mouse TREM2
T3 sequence (looked up): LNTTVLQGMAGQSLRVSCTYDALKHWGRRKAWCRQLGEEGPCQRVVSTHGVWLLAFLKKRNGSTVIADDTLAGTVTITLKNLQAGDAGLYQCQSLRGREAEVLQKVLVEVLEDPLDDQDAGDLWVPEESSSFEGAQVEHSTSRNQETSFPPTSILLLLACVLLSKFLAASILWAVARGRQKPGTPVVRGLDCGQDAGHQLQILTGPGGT

[5] = target: T3, mouse TREM2 on BWZ cells; assay: FACS, BWZ mouse TREM2

| Binder | FOB Fold Over Background [1] | FOB Fold Over Background [2] | binding result [3] | binding result [4] | FOB Fold Over Background [5] |
| --- | --- | --- | --- | --- | --- |
| B1 | 0.5 fold | 0.5 fold | no binding | no binding | 0.9 fold |
| B2 |  |  | no binding | no binding |  |
| B3 | 0.5 fold | 0.7 fold | no binding | no binding | 1.2 fold |
| B4 |  |  | no binding | no binding |  |
| B5 |  |  | no binding | no binding |  |
| B6 |  |  | no binding | no binding |  |
| B7 |  |  | no binding | no binding |  |
| B8 | 417 fold | 0.8 fold | no binding | no binding | 1.2 fold |
